Key:
[1] = substrate: NC(=O)c1ccc[n+]([C@@H]2O[C@H](COP(=O)(O)O)[C@@H](O)[C@H]2O)c1; test: C18-HPLC of NAD formed, nonlinear fit; format: biochemical, Mus musculus; settings: co-substrate ATP, NMN 5–100 µM, HEPES/KOH pH 7.5, MgCl2, 37°C
From the text: (§1) C18-HPLC of NAD formed, nonlinear fit on mNMNAT1

[2] = substrate: Nc1ncnc2c1ncn2[C@@H]1O[C@H](COP(=O)(O)OP(=O)(O)OP(=O)(O)O)[C@@H](O)[C@H]1O; test: C18-HPLC of NAD formed, nonlinear fit; format: biochemical, Mus musculus; settings: co-substrate NMN, ATP 25–175 µM, HEPES/KOH pH 7.5, MgCl2, 37°C
From the text: as §1

[3] = substrate: Nc1ncnc2c1ncn2[C@@H]1O[C@H](COP(=O)(O)OP(=O)(O)OP(=O)(O)O)[C@@H](O)[C@H]1O; test: purified protein; settings: co-substrate NMN, ATP 25–175 µM, HEPES/KOH pH 7.5, MgCl2, 37°C
[4] = substrate: NC(=O)c1ccc[n+]([C@@H]2O[C@H](COP(=O)(O)O)[C@@H](O)[C@H]2O)c1; test: C18-HPLC of NAD formed, nonlinear fit; format: biochemical, Mus musculus; settings: co-substrate ATP, NMN 5–100 µM, HEPES/KOH pH 7.5, MgCl2, 37°C; remark: listed apart in the source
[5] = substrate: NC(=O)c1ccc[n+]([C@@H]2O[C@H](COP(=O)(O)O)[C@@H](O)[C@H]2O)c1; test: C18-HPLC of NAD formed, nonlinear fit; format: biochemical, Mus musculus; settings: co-substrate ATP, NMN 5–100 µM, HEPES/KOH pH 7.5, MgCl2, 37°C; remark: listed apart in the source
From the text: (§2) C18-HPLC of NAD formed, nonlinear fit on mNMNAT3

[6] = substrate: Nc1ncnc2c1ncn2[C@@H]1O[C@H](COP(=O)(O)OP(=O)(O)OP(=O)(O)O)[C@@H](O)[C@H]1O; test: C18-HPLC of NAD formed, nonlinear fit; format: biochemical, Mus musculus; settings: co-substrate NMN, ATP 25–175 µM, HEPES/KOH pH 7.5, MgCl2, 37°C; remark: listed apart in the source
From the text: as §2

B1: mNMNAT1 (Mus musculus) (protein)
chain: MDSSKKTEVVLLACGSFNPITNMHLRLFELAKDYMHATGKYSVIKGIISPVGDAYKKKGLIPAHHRIIMAELATKNSHWVEVDTWESLQKEWVETVKVLRYHQEKLATGSCSYPQSSPALEKPGRKRKWADQKQDSSPQKPQEPKPTGVPKVKLLCGADLLESFSVPNLWKMEDITQIVANFGLICITRAGSDAQKFIYESDVLWRHQSNIHLVNEWITNDISSTKIRRALRRGQSIRYLVPDLVQEYIEKHELYNTESEGRNAGVTLAPLQRNAAEAKHNHSTL
notes: predicted mass 34518 Da
[1]
  Km: 25.2 ± 5.6 µM
  kcat: 15.5 ± 1.3 s⁻¹
  kcat/Km: 610000 M⁻¹ s⁻¹
[2]
  Km: 33.5 ± 5.1 µM
  kcat: 15 ± 0.7 s⁻¹
  kcat/Km: 450000 M⁻¹ s⁻¹

B2: mNMNAT2 (Mus musculus) (protein)
chain: MTETTKTHVILLACGSFNPITKGHIQMFERARDYLHKTGRFIVIGGIVSPVHDSYGKQGLVSSRHRLIMCQLAVQNSDWIRVDPWECYQDTWQTTCSVLEHHRDLMKRVTGCILSNVNTPSMTPVIGQPQHENTQPIYQNSNVPTKPTAAKILGKVGESLSRICCVRPPVERFTFVDENANLGTVMRYEEIELRILLLCGSDLLESFCIPGLWNEADMEVIVGDFGIVVVPRDAADTDRIMNHSSILRKYKNNIMVVKDDINHPMSVVSSTKSRLALQHGDGHVVDYLSQPVIDYILKSQLYINASG
notes: predicted mass 36668 Da
[3]
  Km: 82.0 ± 15.1 µM
  kcat: 2.33 s⁻¹
  kcat/Km: 30000 M⁻¹ s⁻¹
[4]
  Km: 38.5 ± 13.5 µM
  kcat: 2.87 ± 0.5 s⁻¹
  kcat/Km: 70000 M⁻¹ s⁻¹

B3: mNMNAT3 (Mus musculus) (protein)
chain: MKNRIPVVLLACGSFNPITNMHLRLFEVARDHLHQTGRYQVIEGIISPVNDSYGKKDLVASHHRVAMARLALQTSDWIRVDPWESEQAQWMETVKVLRHHHRELLRSSAQMDGPDPSKTPSASAALPELKLLCGADVLKTFQTPNLWKDTHIQEIVEKFGLVCVSRSGHDPERYISDSPILQQFQHNIHLAREPVLNEISATYVRKALGQGQSVKYLLPEAVITYIRDQGLYINDGSWKGKGKTG
notes: predicted mass 29866 Da
[5]
  Km: 117.6 ± 4.6 µM
  kcat: 0.75 ± 0.02 s⁻¹
  kcat/Km: 10000 M⁻¹ s⁻¹
[6]
  Km: 39.0 ± 5.9 µM
  kcat: 0.74 ± 0.04 s⁻¹
  kcat/Km: 20000 M⁻¹ s⁻¹
